Measurements taken from publication PMC8158037.

Molecular target: δ-toxin (secreted by S. aureus MW2 and its ΔPSMα strain) (Staphylococcus aureus MW2)
Test: AUC + SEC-MALS + native MS + cross-linking

δ-toxin (secreted by S. aureus MW2 and its ΔPSMα strain) (peptide)
stoichiometry N: 8
